The values that follow come from patent US20210388087A1 (Chugai, published 2021).

The labels stand for the following.
B1: H183/L072 VH K52bP (antibody, name in Kabat numbering, V domains shown)
VH: QVQLVESGGGLVQPGRSLRLSCAASGFTFSNAWMHWVRQAPGKGLEWVAQIKDPGNAYAAYYAPSVKGRFTISRDDSKNSIYLQMNSLKTEDTAVYYCHYVHYASASTVLPAFGVDAWGQGTTVTVSS
VL: DIVMTQSPLSLPVTPGEPASISCQASQELVHMNRNTYLHWYQQKPGQAPRLLIYKVSNRFPGVPDRFSGSGSGTDFTLKISRVEAEDVGVYYCAQGTSVPFTFGQGTKLEIK
B2: H183/L072 VH L100dA (antibody, name in Kabat numbering, V domains shown)
VH: B1 VH with P54K, L110A
VL: B1 VL
B3: H183/L072 VH M34F (antibody, name in Kabat numbering, V domains shown)
VH: B1 VH with M34F, P54K
VL: B1 VL
B4: H183/L072 VH K64M (antibody, name in Kabat numbering, V domains shown)
VH: B1 VH with P54K, K67M
VL: B1 VL
B5: H183/L072 VH L100dI (antibody, name in Kabat numbering, V domains shown)
VH: B1 VH with P54K, L110I
VL: B1 VL
B6: H183/L072 VH K52bY (antibody, name in Kabat numbering, V domains shown)
VH: B1 VH with P54Y
VL: B1 VL
B7: H183/L072 VH K52bW (antibody, name in Kabat numbering, V domains shown)
VH: B1 VH with P54W
VL: B1 VL
B8: H183/L072 VH K64L (antibody, name in Kabat numbering, V domains shown)
VH: B1 VH with P54K, K67L
VL: B1 VL
B9: H183/L072 VH K52bV (antibody, name in Kabat numbering, V domains shown)
VH: B1 VH with P54V
VL: B1 VL
B10: H183/L072 VH K52bS (antibody, name in Kabat numbering, V domains shown)
VH: B1 VH with P54S
VL: B1 VL
B11: H183/L072 VH K52bQ (antibody, name in Kabat numbering, V domains shown)
VH: B1 VH with P54Q
VL: B1 VL
B12: H183/L072 VH K64P (antibody, name in Kabat numbering, V domains shown)
VH: B1 VH with P54K, K67P
VL: B1 VL
B13: H183/L072 VH K64A (antibody, name in Kabat numbering, V domains shown)
VH: B1 VH with P54K, K67A
VL: B1 VL
B14: H183/L072 VH K64I (antibody, name in Kabat numbering, V domains shown)
VH: B1 VH with P54K, K67I
VL: B1 VL
B15: H183/L072 VH K52bT (antibody, name in Kabat numbering, V domains shown)
VH: B1 VH with P54T
VL: B1 VL
B16: H183/L072 VH K52bR (antibody, name in Kabat numbering, V domains shown)
VH: B1 VH with P54R
VL: B1 VL
B17: H183/L072 VH L100dM (antibody, name in Kabat numbering, V domains shown)
VH: B1 VH with P54K, L110M
VL: B1 VL

Positions count from the first letter of the chain named. In names and notes the source's numbering stands.

The target of this test is T1, Human CD137 ECD (human).
T1 construct: also called 4-1BB
T1 sequence (chain, as listed by the source limits assumed): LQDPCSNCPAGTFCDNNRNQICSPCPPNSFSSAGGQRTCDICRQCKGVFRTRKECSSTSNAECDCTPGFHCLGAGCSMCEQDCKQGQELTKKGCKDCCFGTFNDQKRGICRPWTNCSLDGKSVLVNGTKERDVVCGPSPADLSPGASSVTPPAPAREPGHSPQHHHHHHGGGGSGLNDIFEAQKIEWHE
The test can be described thus: single mutant vs template dBBDu183H.
Turning to B1, the “fold change of affinity” value was 0.4 fold. Then B2, with 0.8 fold; and B3, with 2.5 fold. As for B4, the “fold change of affinity” value was 1.1 fold.

In the case of B5, the “fold change of affinity” value came to 0 fold. As to B6, the “fold change of affinity” value was determined as 1 fold.

In the case of B7, the “fold change of affinity” value was 0.9 fold.

As to B8, the “fold change of affinity” value was 1.1 fold. Turning to B9, the “fold change of affinity” value amounted to 0.6 fold. Next, B10: 0.8 fold; B11: 0.8 fold; B12: 0.7 fold. Then B13, with 1.2 fold. Next, B14: 1.1 fold. On to B15, for which the “fold change of affinity” value was determined as 0.1 fold. Then B16, with 1.2 fold. Then B17, with 0.9 fold.
